Tests used:
[1] = biological target: thiocyanate dehydrogenase (TcDH) from Thioalkalivibrio paradoxus ARh 1 (Thioalkalivibrio paradoxus ARh 1); assay: ITC; aliquots (2.6 µL) of CytC552 injected into a 0.2-mL cell with 9.3 µM TcDH; 25 °C; 25 mM borate buffer, pH 9.5; fitted assuming either one or two binding sites of CytC552 in the TcDH dimer
[2] = biological target: thiocyanate dehydrogenase (TcDH) from Thioalkalivibrio paradoxus ARh 1 (Thioalkalivibrio paradoxus ARh 1)
[3] = biological target: recombinant cytochrome c552 (CytC552) from Thioalkalivibrio paradoxus (Thioalkalivibrio paradoxus ARh 1); assay: NMR titration; oxidized 13C/15N-labelled CytC552 titrated with TcDH; intensity of the 1H signal of the heme HAB atom fitted with the Morrison equation; 1H/15N-HSQC chemical shift perturbation at saturating TcDH; slow exchange; 50 mM sodium phosphate, pH 7.0, 303 K

| Substance | Kd [1] | specific activity of TcDH in thiocyanate oxidation with CytC552 as electron acceptor, pH optimum 9.5 [2] | Kd [3] | stoichiometry N [3] |
| --- | --- | --- | --- | --- |
| recombinant cytochrome c552 (CytC552) from Thioalkalivibrio paradoxus (natural protein) | 1800 nM | 7.3 µmol/min/mg |  |  |
| thiocyanate dehydrogenase (TcDH) from Thioalkalivibrio paradoxus ARh 1 (enzyme) |  |  | 2000 nM | 1 |

Reference: PMC9456337
